The values below come from patent US20100196267A1.

Assay [1] addresses HLA-DR (human). Put plainly: indirect flow cytometry on Namalwa cells, FITC-GAM 2nd Ab (none 2.91); control antibody. In general terms: A flow cytometer gives signals particle by particle.
For assay [2], the target named is antigen on dog lymphoma cells recognised by L243 and hL243 (dog). Put plainly: flow cytometry on dog lymphoma aspirate, murine MAbs (none 3.37); control antibody.
Assay [3] has the same target. The experiment in a line: flow cytometry on dog lymphoma aspirate, murine MAbs (none 3.85); control antibody.
Assay [4] has as its target CD74 (human) (UniProt P04233). The experiment in a line: indirect flow cytometry on Namalwa cells, FITC-GAM 2nd Ab (none 2.91).
In assay [5] the target is CD74 on dog lymphoma cells (dog). Put plainly: flow cytometry on dog lymphoma aspirate, murine MAbs (none 3.85).
Assay [6] has the same target. The experiment in a line: flow cytometry on dog lymphoma aspirate, murine MAbs (none 3.37).
The target in the next assay is CD22 (human) (UniProt P20273). The experiment in a line: indirect flow cytometry on Namalwa cells, FITC-GAM 2nd Ab (none 2.91).
Assay [7] concerns the target CD22 on dog lymphoma cells (dog). The experiment in a line: flow cytometry on dog lymphoma aspirate, murine MAbs (none 3.85).
For assay [8] the target is unchanged. The experiment in a line: flow cytometry on dog lymphoma aspirate, murine MAbs (none 3.37).
In assay [9] the target is HLA-DR (human). Put plainly: indirect flow cytometry on Namalwa cells, FITC-GAM 2nd Ab (none 2.91); irrelevant antibody.
The target in assay [10] is Fcγ receptors on effector cells. The experiment in a line: cell-based or functional assay.
Assay [11] has as its target CD74 on dog lymphoma cells (dog). The experiment in a line: flow cytometry on dog lymphoma aspirate, humanized MAbs (none 4.48).
Assay [12] concerns the target CD74 (human) (UniProt P04233). Put plainly: indirect FACS, FITC-GAH Fc 2nd Ab, Daudi cells (none 3.1); number split over two cells.
The target in assay [13] is CD74 (human) (UniProt P04233). The experiment in a line: indirect flow cytometry, FITC-GAH Fc 2nd Ab, Daudi cells (none 3.2).
Assay [14] has as its target CD74 (human) (UniProt P04233). The experiment in a line: indirect flow cytometry, FITC-GAH Fc 2nd Ab, Raji cells (none 6.9).
The target in assay [15] is CD74 on dog lymphoma cells (dog). The experiment in a line: flow cytometry on dog lymphoma aspirate, humanized MAbs (none 3.24).
Assay [16] has as its target CD74 (human) (UniProt P04233). The experiment in a line: indirect flow cytometry, FITC-GAH Fc 2nd Ab, Namalwa cells (none 2.6).
Assay [17] concerns the target CD74 (human) (UniProt P04233). Put plainly: indirect flow cytometry, FITC-GAH Fc 2nd Ab, Ramos cells (none 3.1).
Assay [18] addresses CD74 (human) (UniProt P04233). The experiment in a line: indirect FACS, FITC-GAH Fc 2nd Ab, SU-DHL-6 cells (none 4.6); number split over two cells.
In assay [19] the target is CD74 (human) (UniProt P04233). The experiment in a line: indirect flow cytometry, FITC-GAH Fc 2nd Ab, SU-DHL-6 cells (none 4.6).
Assay [20] concerns the target CD74 (human) (UniProt P04233). Put plainly: indirect FACS, FITC-GAH Fc 2nd Ab, Namalwa cells (none 2.5); number split over two cells.
Assay [21] deals with CD74 (human) (UniProt P04233). The experiment in a line: indirect flow cytometry, FITC-GAH Fc 2nd Ab, WSU-FSCCL cells (none 2.7).
For assay [22], the target named is CD74 (human) (UniProt P04233). The experiment in a line: indirect FACS, FITC-GAH Fc 2nd Ab, Ramos cells (none 3.1); number split over two cells.
Assay [23] deals with CD74 (human) (UniProt P04233). The experiment in a line: indirect flow cytometry, FITC-GAH Fc 2nd Ab, RL cells (none 2.4).
Assay [24] concerns the target CD74 (human) (UniProt P04233). The experiment in a line: indirect FACS, FITC-GAH Fc 2nd Ab, WSU-FSCCL cells (none 2.6); number split over two cells.
Assay [25] concerns the target CD74 (human) (UniProt P04233). The experiment in a line: indirect FACS, FITC-GAH Fc 2nd Ab, Raji cells (none 6.8); number split over two cells.
Assay [26] concerns the target CD74 (human) (UniProt P04233). Put plainly: indirect flow cytometry on Namalwa cells, FITC-GAH 2nd Ab (none 2.52).
Assay [27] deals with CD22 on dog lymphoma cells (dog). The experiment in a line: flow cytometry on dog lymphoma aspirate, humanized MAbs (none 4.48).
Assay [28] shares this target. Put plainly: flow cytometry on dog lymphoma aspirate, humanized MAbs (none 3.24).
Assay [29] has as its target HLA-DR (human). Put plainly: indirect flow cytometry on Namalwa cells, FITC-GAH 2nd Ab (none 2.52); irrelevant antibody.
Another assay deals with T1, CD20 (human) (UniProt P11836).
T1 sequence (looked up): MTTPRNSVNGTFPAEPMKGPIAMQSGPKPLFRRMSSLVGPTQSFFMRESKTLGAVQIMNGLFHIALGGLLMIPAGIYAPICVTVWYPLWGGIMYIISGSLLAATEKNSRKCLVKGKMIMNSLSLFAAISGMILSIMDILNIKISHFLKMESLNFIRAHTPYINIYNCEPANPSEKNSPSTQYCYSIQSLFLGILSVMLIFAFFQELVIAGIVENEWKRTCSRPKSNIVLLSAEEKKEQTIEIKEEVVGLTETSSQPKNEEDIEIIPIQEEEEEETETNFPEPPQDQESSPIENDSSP
The experiment in a line: indirect flow cytometry on Namalwa cells, FITC-GAM 2nd Ab (none 2.91).

The target in assay [30] is T2, CD20 on dog lymphoma cells (dog) (UniProt Q3C2E2).
T2 sequence (looked up): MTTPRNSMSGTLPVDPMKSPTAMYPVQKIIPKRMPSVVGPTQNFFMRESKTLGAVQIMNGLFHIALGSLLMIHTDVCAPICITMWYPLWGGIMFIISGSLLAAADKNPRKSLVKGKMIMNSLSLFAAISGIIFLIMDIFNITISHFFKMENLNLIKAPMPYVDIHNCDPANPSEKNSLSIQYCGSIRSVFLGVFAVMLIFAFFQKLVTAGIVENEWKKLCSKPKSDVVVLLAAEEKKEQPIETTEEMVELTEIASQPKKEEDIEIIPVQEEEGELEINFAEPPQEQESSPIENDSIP
Put plainly: flow cytometry on dog lymphoma aspirate, murine MAbs (none 3.85).

In assay [31] the target is T2, CD20 on dog lymphoma cells (dog). The experiment in a line: flow cytometry on dog lymphoma aspirate, murine MAbs (none 3.37).

Chain of CD74 (human) (P04233 whole entry): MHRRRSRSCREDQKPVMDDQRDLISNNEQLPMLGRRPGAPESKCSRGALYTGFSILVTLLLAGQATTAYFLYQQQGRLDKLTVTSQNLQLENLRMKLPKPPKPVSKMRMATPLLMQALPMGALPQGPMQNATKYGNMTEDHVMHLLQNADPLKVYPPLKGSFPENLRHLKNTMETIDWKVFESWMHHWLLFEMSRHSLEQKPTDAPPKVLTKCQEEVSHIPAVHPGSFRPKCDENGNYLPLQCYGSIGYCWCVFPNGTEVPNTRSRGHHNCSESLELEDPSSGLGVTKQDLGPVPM

For Ag8 (antibody), the GEO MEAN Fluorescence in the assay with HLA-DR (human) [1] worked out at 3.64. The same substance yielded a Mean FL in assay [2] of 3.04. Also, the % in assay [3] amounted to 2.81%.

LL1 (murine) (antibody) yielded a GEO MEAN Fluorescence with CD74 (human) [4] of 17.3. Also, the % in [5] is 6.69%. In addition, the Mean FL in assay [6] is 4.01.

As for LL2 (murine) (antibody), in the assay with CD22 (human), the GEO MEAN Fluorescence was 10.5. Besides, the % in assay [7] amounted to 5.05%. Moreover, in assay [8], the Mean FL was found to be 3.73.

Substance RS7 (murine) (antibody) returned a GEO MEAN Fluorescence in the assay with HLA-DR (human) [9] of 3.39.

As to hL243γ1 (antibody), the ADCC on Daudi cells, specific lysis corrected for the effect on effector cells (5 µg/ml, effector:target 50:1, 4 h) in assay [10] turned out to be 48%.

Turning to hL243γ4P (antibody), the ADCC on Daudi cells, specific lysis corrected for the effect on effector cells (5 µg/ml, effector:target 50:1, 4 h) in [10] was 12%.

Substance hLL1 (antibody) yielded a % in assay [11] of 4.71%. For the same substance, the Geometric Mean Fluorescence with CD74 (human) [12] stood at 48.8; with CD74 (human) [13], 48.8; in the assay with CD74 (human) [14] it was 95.1; with CD74 (human) [16], 7.8; in the assay with CD74 (human) [17], 23.3; in the assay with CD74 (human) [18], 17.3. In addition, the Geometric Mean Fluorescence in the assay with CD74 (human) [19] is 17.3; in the assay with CD74 (human) [20] it was 7.81; in the assay with CD74 (human) [21], 8.7; with CD74 (human) [22] it was 23.2; with CD74 (human) [23], 7.9; in the assay with CD74 (human) [24], 8.66. The same substance gave a Geometric Mean Fluorescence with CD74 (human) [25] of 95.1. Further, the Mean FL in assay [15] turned out to be 3.33. Also, the GEO MEAN Fluorescence with CD74 (human) [26] was found to be 10.1.

The substance hLL2 (antibody) registered a % in [27] of 4.85%. This substance also gave a Mean FL in assay [28] of 3.37.

hRS7 (antibody) gave a GEO MEAN Fluorescence with HLA-DR (human) [29] of 2.47.

m2B8 (antibody) had a GEO MEAN Fluorescence with CD20 (human) of 6.16. The same substance returned a % in assay [30] of 2.61%. In [31], this substance displayed a Mean FL of 3.11.
